Literature values, collected in publication PMC6815250.

Target: RgpB pro-fragment pro-fragment (Porphyromonas gingivalis) (UniProt P95493)

Chain of RgpB (P95493 230-736): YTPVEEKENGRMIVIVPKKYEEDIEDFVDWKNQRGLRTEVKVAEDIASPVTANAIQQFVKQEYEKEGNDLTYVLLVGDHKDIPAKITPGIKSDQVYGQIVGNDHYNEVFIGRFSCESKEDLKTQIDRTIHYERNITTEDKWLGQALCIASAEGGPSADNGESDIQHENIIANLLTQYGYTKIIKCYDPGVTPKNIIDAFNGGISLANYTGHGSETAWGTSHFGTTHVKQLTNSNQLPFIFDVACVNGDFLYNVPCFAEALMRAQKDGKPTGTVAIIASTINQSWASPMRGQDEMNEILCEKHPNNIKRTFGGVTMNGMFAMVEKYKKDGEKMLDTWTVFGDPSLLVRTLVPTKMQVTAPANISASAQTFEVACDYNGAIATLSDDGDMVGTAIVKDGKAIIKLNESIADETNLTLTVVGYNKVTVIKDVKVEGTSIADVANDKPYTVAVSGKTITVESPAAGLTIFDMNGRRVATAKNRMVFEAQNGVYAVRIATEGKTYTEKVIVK

In the case of RgpB (from UniProt P95493), the Ki is given as 6.3 nM.
